The results in this text go back to IntAct's records for PubMed 15143060.

B1: ADP-ribosylation factor-binding protein GGA1 (Homo sapiens), Q9UJY5 (parent)
chain: MEPAMEPETLEARINRATNPLNKELDWASINGFCEQLNEDFEGPPLATRLLAHKIQSPQEWEAIQALTVLETCMKSCGKRFHDEVGKFRFLNELIKVVSPKYLGSRTSEKVKNKILELLYSWTVGLPEEVKIAEAYQMLKKQGIVKSDPKLPDDTTFPLPPPRPKNVIFEDEEKSKMLARLLKSSHPEDLRAANKLIKEMVQEDQKRMEKISKRVNAIEEVNNNVKLLTEMVMSHSQGGAAAGSSEDLMKELYQRCERMRPTLFRLASDTEDNDEALAEILQANDNLTQVINLYKQLVRGEEVNGDATAGSIPGSTSALLDLSGLDLPPAGTTYPAMPTRPGEQASPEQPSASVSLLDDELMSLGLSDPTPPSGPSLDGTGWNSFQSSDATEPPAPALAQAPSMESRPPAQTSLPASSGLDDLDLLGKTLLQQSLPPESQQVRWEKQQPTPRLTLRDLQNKSSSCSSPSSSATSLLHTVSPEPPRPPQQPVPTELSLASITVPLESIKPSNILPVTVYDQHGFRILFHFARDPLPGRSDVLVVVVSMLSTAPQPIRNIVFQSAVPKVMKVKLQPPSGTELPAFNPIVHPSAITQVLLLANPQKEKVRLRYKLTFTMGDQTYNEMGDVDQFPPPETWGSL

The variants in this assay derive from B1. Conditions: with arf1_human ARF1, P84077.
Sequence of arf1_human ARF1, P84077 (P84077 whole entry): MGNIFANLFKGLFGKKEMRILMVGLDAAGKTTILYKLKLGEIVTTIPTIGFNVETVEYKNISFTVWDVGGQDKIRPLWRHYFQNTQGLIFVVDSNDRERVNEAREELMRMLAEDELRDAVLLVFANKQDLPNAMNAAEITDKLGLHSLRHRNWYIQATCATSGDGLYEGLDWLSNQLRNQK
In the case of L182A;N194A;I197A, the “effect of a mutation on the interaction” value is reported as “decreasing interaction”.
